In patent US20150045310A1 (published 2015):
Where no end group is shown, it is not given here. eCPX = enhanced circularly permuted OmpX display scaffold; linker = not defined here

T1: A1 (biotinylated pro-survival Bcl-2 family protein) (UniProt Q16548 1-152, biotinylated (co-expressed E. coli biotin ligase BirA))
T1 chain: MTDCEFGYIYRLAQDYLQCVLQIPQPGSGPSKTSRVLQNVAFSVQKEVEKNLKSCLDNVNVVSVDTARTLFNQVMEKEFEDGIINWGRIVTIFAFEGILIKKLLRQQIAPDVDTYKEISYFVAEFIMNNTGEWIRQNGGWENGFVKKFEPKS

T2: Mcl-1 (biotinylated pro-survival Bcl-2 family protein) (UniProt Q07820 171-327, biotinylated (co-expressed E. coli biotin ligase BirA))
T2 chain: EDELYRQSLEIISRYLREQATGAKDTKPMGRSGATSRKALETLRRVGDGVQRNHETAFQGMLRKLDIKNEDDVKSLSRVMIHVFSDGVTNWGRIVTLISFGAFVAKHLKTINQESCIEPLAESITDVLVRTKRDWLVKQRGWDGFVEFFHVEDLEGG


Legend:
[1] = target: Bcl-2 (biotinylated pro-survival Bcl-2 family protein) (UniProt P10415 1-217, biotinylated (co-expressed E. coli biotin ligase BirA)); assay: cell surface display FACS titration; apparent Kd
[2] = target: T1, A1 (biotinylated pro-survival Bcl-2 …); assay: flow cytometry, bacterial surface display (eCPX); apparent Kd; FIG. 7AH
[3] = target: T2, Mcl-1 (biotinylated pro-survival Bcl-2 …); assay: cell surface display FACS titration; apparent Kd

Chain of Bcl-2 (biotinylated pro-survival Bcl-2 family protein) (P10415 1-217): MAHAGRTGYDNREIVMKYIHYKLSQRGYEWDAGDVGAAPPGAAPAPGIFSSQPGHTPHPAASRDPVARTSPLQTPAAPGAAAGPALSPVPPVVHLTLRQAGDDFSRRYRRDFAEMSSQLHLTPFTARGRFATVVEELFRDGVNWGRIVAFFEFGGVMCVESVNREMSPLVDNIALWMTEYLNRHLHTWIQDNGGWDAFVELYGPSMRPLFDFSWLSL

Row | Binder | Kd [3] [nM] | also measured
1 | WVAQLLRRIGDEVN-{linker-eCPX} (reading uncertain; also: printed as Trp-Val-Ala-Gln-Leu-Leu-Arg-Arg-Ile-Gly-Asp-Glu-Val-Asn) [Bim BH3 14-mer variant M2-2 displayed on eCPX] | – | Kd [1]: > 10000 nM
2 | WLAQLLRRYGDEFN (also: displayed as fusion to eCPX scaffold (letters not given here)) [Bim BH3 14-mer variant X2-8 displayed on eCPX] | – | Kd [2]: 5.8 nM
3 | WIAQLLRRIGDEFN [Bim BH3 14-mer E151L displayed on eCPX] | 17.8 | –
4 | WIAQTLRRIGDEFN [Bim BH3 14-mer E151T displayed on eCPX] | 33.2 | –
